Changes are numbered by the printed parent chain.
T1: SIRT1 NTD(3HB)-CD (Homo sapiens, UniProt Q96EB6)
T1 chain: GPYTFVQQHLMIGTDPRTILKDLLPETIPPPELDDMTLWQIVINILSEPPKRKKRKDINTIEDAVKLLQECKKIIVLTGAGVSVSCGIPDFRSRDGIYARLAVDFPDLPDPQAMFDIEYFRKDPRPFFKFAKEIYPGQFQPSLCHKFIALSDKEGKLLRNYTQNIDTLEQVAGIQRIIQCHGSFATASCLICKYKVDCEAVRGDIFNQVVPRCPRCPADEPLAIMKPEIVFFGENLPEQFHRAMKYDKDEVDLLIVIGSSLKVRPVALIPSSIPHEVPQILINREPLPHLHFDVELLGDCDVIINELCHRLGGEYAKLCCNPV

T2: SIRT1 NTD(3HB) (Homo sapiens, UniProt Q96EB6)
T2 chain: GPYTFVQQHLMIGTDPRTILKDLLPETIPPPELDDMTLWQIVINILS

T3: SIRT1 CD (Homo sapiens, UniProt Q96EB6)
T3 chain: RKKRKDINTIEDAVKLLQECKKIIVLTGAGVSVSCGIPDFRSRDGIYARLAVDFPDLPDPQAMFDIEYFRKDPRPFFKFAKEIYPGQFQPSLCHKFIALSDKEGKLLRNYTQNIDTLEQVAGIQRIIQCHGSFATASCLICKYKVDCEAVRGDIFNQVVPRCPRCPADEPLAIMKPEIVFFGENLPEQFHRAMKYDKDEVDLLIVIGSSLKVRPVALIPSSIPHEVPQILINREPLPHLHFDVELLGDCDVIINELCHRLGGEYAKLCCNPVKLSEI

B1: PPARγ LBD (protein)
chain: PESADLRALAKHLYDSYIKSFPLTKAKARAILTGKTTDKSPFVIYDMNSLMMGEDKIKFKHITPLQEQSKEVAIRIFQGCQFRSVEAVQEITEYAKSIPGFVNLDLNDQVTLLKYGVHEIIYTMLASLMNKDGVLISEGQGFMTREFLKSLRKPFGDFMEPKFEFAVKFNALELDDSDLAIFIAVIILSGDRPGLLNVKPIEDIQDNLLQALELQLKLNHPESSQLFAKLLQKMTDLRQIVTEHVQLLQVIKKTETDMSLHPLLQEIYKDLY
B2: PPARγ LBD (protein)
chain: B1 chain with K35Q
B3: PPARγ LBD (protein)
chain: B1 chain with L32R
B4: PPARγ LBD (protein)
chain: B1 chain with Q66D
B5: PPARγ LBD (protein)
chain: B1 chain with V43R
B6: PPARγ LBD (protein)
chain: B1 chain with K60Q
B7: PPARγ DBD-LBD (protein)
chain: AIECRVCGDKASGFHYGVHACEGCKGFFRRTIRLKLIYDRCDLNCRIHKKSRNKCQYCRFQKCLAVGMSHNAIRFGRMPQAEKEKLLAEISSDIDQLNPESADLRALAKHLYDSYIKSFPLTKAKARAILTGKTTDKSPFVIYDMNSLMMGEDKIKFKHITPLQEQSKEVAIRIFQGCQFRSVEAVQEITEYAKSIPGFVNLDLNDQVTLLKYGVHEIIYTMLASLMNKDGVLISEGQGFMTREFLKSLRKPFGDFMEPKFEFAVKFNALELDDSDLAIFIAVIILSGDRPGLLNVKPIEDIQDNLLQALELQLKLNHPESSQLFAKLLQKMTDLRQIVTEHVQLLQVIKKTETDMSLHPLLQEIYKDLY
modifications: Rosiglitazone
B8: PPARγ DBD-LBD (protein)
chain: B7 chain
B9: PPARγ DBD-LBD (protein)
chain: B7 chain
modifications: NAD+

Molecular target: T1, SIRT1 NTD(3HB)-CD
Test: FP

Row | Kd | Binder
1 | 240 nM | B1
2 | 560 nM | B2
3 | 170 nM | B3
4 | 111000 nM | B4
5 | 810 nM | B5
6 | 210 nM | B6
7 | 690 nM | B7
8 | 1900 nM | B8
9 | 1670 nM | B9

Molecular target: T2, SIRT1 NTD(3HB)
Test: FP

Row | Kd | Binder
10 | 6550 nM | B1

Molecular target: T3, SIRT1 CD
Test: FP

Row | Kd | Binder
11 | 1620 nM | B1
